# Laboratory results: patent US20260374857 (published 2026)
# Positions count from the first letter of the chain named.
# T1: GnRH Bio-peptide 1 (not fully specified)
# T1 chain: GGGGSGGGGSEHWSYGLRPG
# T2: GnRH Bio-peptide 2 (not fully specified)
# T2 chain: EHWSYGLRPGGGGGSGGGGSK
# B1: Clone 1 (pGnRH-001) (antibody, V domains shown)
# VH: QVQLVESGGGLVQAGGSVRLSCTASGRTFNNYVLGWFRQTPGKEREFVAAIRGTGSTTHADSVKGRFTISRDNAKNTVYLQMNSLKPEDTAVYYCAADDAYYPGNLRPQYWGQGTQVTVSS
# B2: Clone 1 Variant 3 (antibody, V domains shown)
# VH: B1 VH with P103S, Q109H
# B3: Clone 1 Variant 2 (antibody, V domains shown)
# VH: B1 VH with D99R, Q109H
# B4: Clone 1 Variant 4 (antibody, V domains shown)
# VH: B1 VH with D99E, A100T, Q109H
# B5: Clone 1 Variant 5 (antibody, V domains shown)
# VH: B1 VH with D99R, A100T, N105A
# B6: Clone 1 Variant 1 (antibody, V domains shown)
# VH: B1 VH with Q109H
# B7: Clone 9 (pGnRH-009) (antibody, V domains shown)
# VH: EVQLVESGGGLVQSGGSLGLSCAASGRTFSGYAMGWFRQAPGKEREFVAAIRWSGGSTSYADSVKGRFTISRDNAKNTVYLQMNSLKPEDTAVYYCAADRGPSGSYYYPDYWGQGTQVTVSS
# B8: 09Tm2 (antibody, V domains shown)
# VH: B7 VH with E1D, S14P, G19R, W53F
# B9: 09Tm1 (antibody, V domains shown)
# VH: B7 VH with E1D, S14P, G19R
# B10: 01Tm2 (antibody, V domains shown)
# VH: B1 VH with Q1D, A14P, V18L, T23A, N30Q
# B11: 01Tm3 (antibody, V domains shown)
# VH: B1 VH with Q1D, A14P, V18L, T23A, N31A
# B12: 01Tm4 (antibody, V domains shown)
# VH: B1 VH with Q1D, A14P, V18L, T23A, N30S
# B13: 01Tm1 (antibody, V domains shown)
# VH: B1 VH with Q1D, A14P, V18L, T23A
# B14: Clone 9 Ala scanning 12 (antibody, V domains shown)
# VH: B7 VH with D110A
# B15: Clone 9 Ala scanning 9 (antibody, V domains shown)
# VH: B7 VH with Y107A
# B16: Clone 9 Ala scanning 11 (antibody, V domains shown)
# VH: B7 VH with P109A
# B17: Clone 9 Ala scanning 3 (antibody, V domains shown)
# VH: B7 VH with G101A
# B18: Clone 9 Ala scanning 10 (antibody, V domains shown)
# VH: B7 VH with Y108A
# B19: Clone 9 Ala scanning 4 (antibody, V domains shown)
# VH: B7 VH with P102A
# B20: Clone 9 Ala scanning 7 (antibody, V domains shown)
# VH: B7 VH with S105A
# B21: Clone 9 Ala scanning 5 (antibody, V domains shown)
# VH: B7 VH with S103A
# B22: Clone 9 Ala scanning 2 (antibody, V domains shown)
# VH: B7 VH with R100A
# B23: Clone 9 Ala scanning 6 (antibody, V domains shown)
# VH: B7 VH with G104A
# B24: Clone 9 Ala scanning 8 (antibody, V domains shown)
# VH: B7 VH with Y106A
# B25: Clone 19 (pGnRH-019) (antibody, V domains shown)
# VH: B1 VH with V18L, G53W, T57N
# B26: Clone 9 Ala scanning 1 (antibody, V domains shown)
# VH: B7 VH with D99A
# B27: Clone 1 Ala scanning 11 (antibody, V domains shown)
# VH: B1 VH with Q109A
# B28: Clone 1 Ala scanning 4 (antibody, V domains shown)
# VH: B1 VH with Y102A
# B29: Clone 1 Ala scanning 10 (antibody, V domains shown)
# VH: B1 VH with P108A
# B30: Clone 1 Ala scanning 9 (antibody, V domains shown)
# VH: B1 VH with R107A
# B31: Clone 1 Ala scanning 1 (antibody, V domains shown)
# VH: B1 VH with D98A
# B32: Clone 1 Ala scanning 8 (antibody, V domains shown)
# VH: B1 VH with L106A
# B33: Clone 1 Ala scanning 7 (antibody, V domains shown)
# VH: B1 VH with N105A
# B34: Clone 1 Ala scanning 5 (antibody, V domains shown)
# VH: B1 VH with P103A
# B35: Clone 1 Ala scanning 3 (antibody, V domains shown)
# VH: B1 VH with Y101A
# B36: Clone 1 Ala scanning 6 (antibody, V domains shown)
# VH: B1 VH with G104A
# B37: Clone 1 Ala scanning 2 (antibody, V domains shown)
# VH: B1 VH with D99A
# Molecular target: T1, GnRH Bio-peptide 1
# Assay: ELISA
row,EC50,Binder
1,1.27 nM,B1
2,1.19 nM,B2
3,0.5 nM,B3
4,0.96 nM,B4
5,0.94 nM,B5
6,0.39 nM,B6

# Molecular target: T1, GnRH Bio-peptide 1
# Assay: ELISA
# Remark: another data set of the same source
row,EC50,Binder
1,8.16 nM,B7
2,1.37 nM,B8
3,0.99 nM,B9

# Molecular target: T2, GnRH Bio-peptide 2
# Assay: ELISA
row,EC50,Binder
1,0.36 nM,B7
2,1.99 nM,B8
3,1.91 nM,B9

# Molecular target: T2, GnRH Bio-peptide 2
# Assay: ELISA
# Remark: another data set of the same source
row,EC50,Binder
1,0.3 nM,B1
2,0.32 nM,B10
3,0.33 nM,B11
4,0.32 nM,B12
5,0.33 nM,B13

# Molecular target: T2, GnRH Bio-peptide 2
# Assay: SPR
row,Kd,Binder
1,7.1 nM,B1

# Molecular target: T1, GnRH Bio-peptide 1
# Assay: ELISA
# Remark: another data set of the same source
row,EC50,Binder
1,14.4 nM,B7
2,365 nM,B14
3,56.4 nM,B15
4,375 nM,B16
5,307 nM,B17
6,61.2 nM,B18
7,51.3 nM,B19
8,15.6 nM,B20
9,49.5 nM,B21
10,29.9 nM,B22
11,524 nM,B23
12,554 nM,B24

# Molecular target: T1, GnRH Bio-peptide 1
# Assay: ELISA
# Remark: another data set of the same source
row,EC50,Binder
1,14 nM,B1
2,415000 nM,B25

# Molecular target: T1, GnRH Bio-peptide 1
# Assay: ELISA
# Remark: another data set of the same source
row,EC50,Binder
1,0.41 nM,B1
2,0.32 nM,B10
3,0.4 nM,B11
4,0.32 nM,B12
5,0.34 nM,B13

# Molecular target: T1, GnRH Bio-peptide 1
# Assay: ELISA
# Remark: another data set of the same source
row,binding result,Binder
1,no binding,B26

# Molecular target: T1, GnRH Bio-peptide 1
# Assay: ELISA
# Remark: another data set of the same source
row,EC50,Binder
1,4 nM,B1
2,11.9 nM,B27
3,152 nM,B28
4,65.7 nM,B29
5,4.2 nM,B30
6,509 nM,B31
7,4 nM,B32
8,4.3 nM,B33
9,16.9 nM,B34
10,> 1000 nM,B35
11,26.2 nM,B36
12,19.8 nM,B37

# Molecular target: T1, GnRH Bio-peptide 1
# Assay: SPR
row,Kd,Binder
1,13.5 nM,B1
